Key:
[1] = for precipitation: pH 5.2
Experimental: Effect of additives was also tested at the 3 different pH conditions: 150 mM NaCl (FIGS. 15A, 15D and 15G); 150 mM NaCl and 100 mM arginine (FIGS. 15B, 15E and 15H): and 150 mM NaCl and 0.5 M sorbitol (FIGS. 15C, 15F and 15I). Stability was analyzed by analytical SEC.
Effect of additives was also tested at the 3 different pH conditions: 150 mM NaCl (FIGS. 16A, 16D and 16G); 150 mM NaCl and 100 mM Arg (FIGS. 16B, 16E and 16H); and 150 mM NaCl and 0.5 M sorbitol (FIGS. 16C, 16F and 16I). Stability was analyzed by analytical SEC.

[2] = test system: Syrian Golden Hamsters, mucositis of the left buccal cheek pouch; experiment: radiation-induced oral mucositis model; type: in vivo, hamster; details: for % Days ≥3 (percent of animal days with a mucositis score ≥3): Vehicle 59.52%; for Days <3 (animal days with a mucositis score <3) / Days ≥3 (animal days with a mucositis score ≥3): through Day 28; for days of improvement in mucositis scores compared to the Vehicle control group: topical b.i.d.
Experimental: Forty-eight (48) male Syrian Golden Hamsters were used in the study.
Mucositis was induced by administering a single dose of radiation (40 Gy) directed to the left buccal cheek pouch at a rate of 2-2.5 Gy/min administered on Day 0. Radiation was generated with a 160 kilovolt potential (18.75-ma) source at a fecal distance of 10 cm, hardened with a 3.0 mm Al filtration system. Prior to irradiation, animals were anesthetized with an intraperitoneal injection of ketamine (160 mg/kg) and xylazine (8 mg/kg). The left buccal pouch was everted, fixed and isolated using a lead shield. Mucositis was evaluated clinically starting on Day 6 and continuing on alternate days until Day 28. The acute model has little systemic toxicity, resulting in few hamster deaths, thus permitting the use of smaller groups (n=7-8) for initial efficacy studies. It has abo been used to study specific mechanistic elements in the pathogenesis of mucositis.
The animals were divided into 6 treatment groups in which they were administered: Test agents (SG-11 or SG-11V5), a positive control (proprietary to Biomodels, LLC, Watertown, Mass.) or vehicle only were given by topical application to the left cheek pouch as detailed in Table 15 below.
On Day 0, morning dosing was performed at least 1 hour prior to irradiation and at least 1 hour post-irradiation (for PM dose). On Day 28, animals were euthanized and the left cheek pouch rom animals in Groups 1, and Groups 3-6 were excised, placed in a cryovial, snap frozen, and stored at −80° C. until shipment.
Starting on Day 6 and continuing every second day thereafter (Days 8, 10, 12, 14, 16, 18, 20, 22, 24, 26, 28) each animal was photographed and evaluated for mucositis scoring. For the evaluation of mucositis, the animals were anesthetized with an inhalation anesthetic and the left pouch everted. Mucositis was scored visually by comparison to a validated photographic scale (FIG. 37A), ranging from 0 for normal, to 5 for severe ulceration (clinical scoring). In descriptive terms, this scale is defined in Table 16.
A score of 1-2 is considered to represent a mild stage of the disease, whereas a score of […] is considered to indicate moderate to severe ulcerative mucositis. At the conclusion of the experiment, the photographs were randomly numbered and scored by two independent, trained observers who graded the images in blinded fashion using the above-described scale (blinded scoring). Hamsters reaching a mucositis severity score of 4 or higher received buprenorphine (0.5 mg/kg) SC twice a day for 48 hours or until score dropped below 4.
Statistical significance of observed differences was calculated using chi-squared analysis. The significance of differences observed between the control and treatment groups was evaluated by comparing the days with mucositis scores ≥3 and <3 between groups using chi-square analysis. The results of this analysis are shown in Table 17 far the entire study duration (through Day 28). Over the course of the study (Table 17), the percentage of animal days with a score of ≥3 in the Vehicle Group was 59.52%.

[3] = test system: C57BL/6 mice treated with DSS; experiment: therapeutic DSS model of inflammatory bowel disease, treatment after 7 days DSS (Examples 5, 13B); type: in vivo; details: for body weight change: 50 nmoles/kg, day 11, p<0.05; for colon weight to length ratio: p<0.01
Experimental: Following a 7-day acclimation period, the mice were provided with drinking water containing 2.5% DSS for 7 days. Fresh 2.5% DSS water was prepared every 2 days during the 7 day DSS administration. For this therapeutic DSS study, SG-11 used to treat the animals was fused at its N-terminus to a FLAG Tag (DYKDDDDK; SEQ ID NO:32).
On day 7, normal drinking water was restored and i.p. treatments of 50 nmole/kg of SG-11 ([…]) or Gly2-GLP2 (0.2 mg/kg) were initiated. Treatments were administered twice a day (b.i.d.), with a morning and evening dose (every 8 and 16 hours) for six days.
Body weight was measured daily during the morning treatment. The colon tissue was then harvested and length was measured in centimeters and the tissue was weighed. Fecal material was flushed from the colon and residual PBS removed by gently running the colon tissue through a pair of forceps. The colon tissue was then weighed and colon weight to length ratio in mg/mm was determined. Following weight measurements proximal and distal colon tissue was banked for RNA and protein analysis and the remaining tissues was fixed in 10% neutral buffered formalin for histopathology. Statistical analysis was performed by a one-way ANOVA compared to DSS+vehicle for serum 4KDa-FITC translocation, scrum LBP concentrations, colon length, and colon weight to length ratio, while a two-way ANOVA was performed for analysis of body weight. In all analysis, a Fisher's LSD test for multiple comparisons was used. Graphs represent data pooled from two experiments, and are plotted as mean±SEM.
Histopathology analysis was performed on proximal and distal colon tissues from the therapeutic DSS model described above. Proximal (FIG. 13A) and distal (FIG. 13B) colon scores (range 0-4) are presented as well as the total score for the colon which represents the sum of proximal and distal colon scores (Range 0-8) (FIG. 13C). LMA=Loss of mucosal architecture, Edema=Edema, INF=Inflammation, TMI=Transmural inflammation, MH=Mucosal hyperplasia, DYS=Dysplasia. Graphs represent data pooled from two independent experiments, and are plotted as mean±SEM. Statistical analysis was performed by a one-way ANOVA compared to DSS+vehicle followed by a Fisher's LSD test for multiple comparisons.
In the second experiment (Example 13B), mice were provided with drinking water containing 2.5% DSS for 7 days. […] Treatments were administered twice a day (b.i.d.), with a morning and evening dose (every 8 and 16 hours) for 4 days. For both the prophylactic and therapeutic models, fresh 2.5% DSS water was prepared every 2 days during the DSS administration.
At the end of each DSS model study, mice were fasted for 4 hours and then orally gavaged with 600 mg/kg 4KDa dextran labeled with FITC [4KDa-FITC]. One hour after the 4KDa-FITC gavage, mice were euthanized, blood was collected, and FITC signal was measured in serum. […] Data in both graphs are plotted as mean±SEM and each figure represent data from an individual experiment (n=10 per group).
Upon completion of the OSS models above. LBP levels were measured as an inflammation centric readout of barrier function following the protocol detailed in Example 5. Upon completion of both DSS models (Examples 13A and 13B), blood was collected and serum was isolated. LPS binding protein (LBP) levels were measured in serum using a commercially available ELISA Kit (Enzo Lift Sciences).

[4] = 0.75 mg/ml, 0.2 ml topical b.i.d., SG-11 Day 16, SG-11V5 Days 16 and 18, Vehicle 3.29
[5] = Example 5, 50 nmole/kg i.p. b.i.d. six days after 7 days DSS
[6] = Example 13B, 50 nmole/kg i.p. b.i.d. 4 days after 7 days DSS

| Molecule | precipitation [1] | Days <3 (animal days with a mucositis score <3) ([2]; 0.75 mg/mL) | Days ≥3 (animal days with a mucositis score ≥3) ([2]; 0.75 mg/mL) | peak mean mucositis score (scale 0-5) [2, 4] | days of improvement in mucositis scores compared to the Vehicle control group [2] | colon length ([3]; Example 13B (FIG. 22B)) | serum LBP [3, 6] | body weight change ([3]; Example 13B) | colon weight to length ratio ([3]; Example 13B) | other results |
| --- | --- | --- | --- | --- | --- | --- | --- | --- | --- | --- |
| SG-11: Roseburia hominis protein comprising SEQ ID NO:3; tested as SEQ ID NO:5, SEQ ID NO:7 or FLAG-tagged SEQ ID NO:9 (protein, listed as Rosburia hominis) LEGEESVVYVGKKGVIASLDVETLDQSYYDETELKSYVDAEVEDYTAEHGKNAVKVESLKVEDGVAKLKMKYKTPEDYTAFNGIELYQGKVVASLAAGYVYDGEFARVEEGKVVGAATKQDIYSEDDLKVAIIRANTDVKVDGEICYVSCQNVKLTGKDSVSIRDGYYLETGSVTASVDVTGQESVGTEQLSGTEQMEMTGEPVNADDTEQTEAAAGDGSFETDVYTFIVYK | precipitated | 96 | 96 | 3.25 | one day of improvement | significant increase in the colon length | no reduction in LBP | statistically improved body weight changes | significantly improved colon weight to length ratios | aggregate formation by analytical SEC ([1]; 100 mM arginine at pH 7.0): greatly suppressed; % Days ≥3 (percent of animal days with a mucositis score ≥3) ([2]; 0.75 mg/mL): 50.00%; histopathology: inflammation and transmural inflammation scores ([3]; Example 5): no change; histopathology: loss of mucosal architecture score ([3]; Example 5): modest, but significant reduction; body weight [3, 5]: significant improvements; colon length [3, 5]: significant improvements; colon weight to length [3, 5]: significant improvements; serum LBP ([3]; Example 5, 50 nmole/kg i.p. b.i.d. six days after 7 days DSS, FLAG-tagged SG-11): no reduction in LBP; frequency of thick colons ([3]; Example 5, DSS+vehicle 88%, p<0.0001): 25% |
| SG-11V5: variant of SEQ ID NO:7 with N53S, N83S, C147V, C151S (protein, Artificial variant of SG-11 (N53S, N83S, C147V, C151S)) MLEGEESVVYVGKKGVIASLDVETLDQSYYDETELKSYVDAEVEDYTAEHGKSAVKVESLKVEDGVAKLKMKYKTPEDYTAFSGIELYQGKVVASLAAGYVYDGEFARVEEGKVVGAATKQDIYSEDDLKVAIIRANTDVKVDGEIVYVSSQNVKLTGKDSVSIRDGYYLETGSVTASVDVTGQESVGTEQLSGTEQMEMTGEPVNADDTEQTEAAAGDGSFETDVYTFIVYK | precipitated | 120 | 72 | 2.63 | multiple days | significant increase in the colon length | no reduction in LBP | statistically improved body weight changes | significantly improved colon weight to length ratios | aggregation by analytical SEC ([1]; all conditions tested (pH 5.2, 7.0, 8.0; NaCl, arginine, sorbitol)): did not show a large amount of aggregation; Days <3 (animal days with a mucositis score <3) ([2]; 0.075 mg/mL): 106; Days ≥3 (animal days with a mucositis score ≥3) ([2]; 0.075 mg/mL): 86; peak mean mucositis score (scale 0-5) ([2]; 0.075 mg/ml topical b.i.d., Days 16 and 18): 3.00; % Days ≥3 (percent of animal days with a mucositis score ≥3) ([2]; 0.24 mg/mL): 53.65%; Days <3 (animal days with a mucositis score <3) ([2]; 0.24 mg/mL): 89; Days ≥3 (animal days with a mucositis score ≥3) ([2]; 0.24 mg/mL): 103; peak mean mucositis score (scale 0-5) ([2]; 0.24 mg/ml topical b.i.d., Days 16 and 18): 3.13 |
